Assay results taken from patent US20250154240A1, “ANTI-HUMAN CXCL1 ANTIBODY” (CHIOME BIOSCIENCE INC., priority 2022, published 2025).

How the values were obtained:
[1] = system: OCUM-12 gastric cancer cell line; test: Antitumor activity, treatment model with OCUM-12 orthotopic transplantation; format: in vivo, mouse; settings: compared to PBS
Method: OCUM-12 cells were cultured in D-MED medium (FUJIFILM Wako Pure Chemical Corporation, Japan) supplemented with 10% fetal bovine serum (hereinafter abbreviated as FBS; Sigma-Aldrich Corporation) and 1/100 volumes of a penicillin-streptomycin mixture (Nacalai Tesque, Inc., Japan). The cells to be transplanted were detached with 0.25% trypsin/0.02% EDTA (Thermo Fisher Scientific) and washed with PBS, and 4×10^5 cells per mouse were transplanted into the gastric wall of each mouse. On the day following the transplantation, the mice were randomized into groups (8 mice per group) and intraperitoneally administered with test antibodies at a dose of 400 μg/head. […] After 3 weeks had passed from the transplantation, the mice were sacrificed, and the short- and long-axis diameters of tumors formed in their gastric walls were each measured with a caliper. The tumor size was calculated according to the following: 1/2 short-axis diameter (mm)×1/2 long-axis diameter (mm)×3.14. […]
The dose-response relationship between antibody dose and in vivo antitumor activity or CXCR2 migration inhibitory activity was evaluated in a xenograft treatment model with OCUM-12 orthotopic transplantation. […] After 4 weeks had passed from the transplantation, the mice were sacrificed and evaluated.

HuCXCL5 = target: T1, HuCXCL5 (Homo sapiens, UniProt P42830); test: ELISA, inhibition of binding of HuCXCL5 to GAG (heparin, heparan sulfate); format: biochemical; design: purchased PROTEINTECH; settings: antibody 0 to 10 μg/mL; biotin-labeled heparin or heparan sulfate 10 μg/mL
T1 sequence (P42830 37-114): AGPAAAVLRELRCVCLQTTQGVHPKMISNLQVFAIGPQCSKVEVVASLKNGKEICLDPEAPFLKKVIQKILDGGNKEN
Method: (§1) Thus, the effect of Hu5A-5E11 on the binding of CXCLs to GAG was evaluated by ELISA assay using plates on which the antigen (HuCXCL1 protein) used for immunization or HuCXCL2, 3 and 5 and MsCXCL1 and 2 proteins had been directly immobilized. CXCLs other than HuCXCL1 were purchased from PROTEINTECH and used. Biotin-labeled heparan sulfate and heparin were purchased from PG Research and used.
(§2) To 96-well plates, phosphate-buffered saline (PBS) containing 3 μg/mL of HuCXCL1, 2, 3 or 5 or MsCXCL1 or 10 μg/mL of MsCXCL2 was added in a volume of 50 μL per well, and the plates were allowed to stand overnight at 4° C. After removal of the antigen solutions, PBS containing 0.05% Tween-20 (hereinafter referred to as the blocking solution) was added to each well for blocking reaction, and the plates were allowed to stand at room temperature for 30 minutes. […] TMB (Dako) was added as a chromogenic substrate solution to cause color development, and 1 N sulfuric acid was added to stop the reaction, followed by measurement of absorbance at 450 nm. The binding rate of CXCLs to GAG was calculated as a ratio relative to the absorbance measured in the absence of the antibody, which was set to 100%.

HuCXCL1 [2] = target: T2, HuCXCL1 (Homo sapiens, UniProt P09341); test: ELISA, inhibition of binding of HuCXCL1 to GAG (heparin, heparan sulfate); format: biochemical; settings: antibody 0 to 10 μg/mL; biotin-labeled heparin or heparan sulfate 10 μg/mL
T2 construct: made in house; host or cells: Expi293 expression system (transient), protein from the culture supernatant
T2 sequence (P09341 35-107): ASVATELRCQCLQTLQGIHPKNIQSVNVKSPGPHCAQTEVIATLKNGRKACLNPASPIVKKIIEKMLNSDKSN
Method: as §1, §2

HuCXCL1 [3] = target: T2, HuCXCL1; test: FACS, inhibition of binding of APC-labeled HuCXCL1 to HEK293 cells forced to express HuCXCR2; format: cell-based; settings: APC-labeled ligand 10 μg/mL; HEK293 cells expressing HuCXCR2
Method: Chemokines are stabilized by directly binding to GAG on the cell surface and thereby allow efficient signal transduction to their receptors. […] Then, to evaluate whether Hu5A-5E11 inhibits the binding of CXCLs to cells, the binding of fluorescently labeled CXCLs to cells was measured as fluorescence intensity by flow cytometry in FACS. For this purpose, HEK293 cells forced to express HuCXCR2 were used. For use as HuCXCL1, 2, 3 and 5 and MsCXCL1, the proteins in above were labeled with APC.
The cultured cells were detached and washed with PBS, and then suspended at 5.0× 10^5 cells/mL in PBS containing 1% BSA (hereinafter referred to as the FACS buffer). Each of the APC-labeled ligands and Hu5A-5E11 were mixed at final concentrations of 10 μg/mL and 16.7 μg/mL, respectively, and reacted at room temperature for 30 minutes, and then added to the cell suspension and reacted on ice for 30 minutes. After washing with the FACS buffer, the cells were suspended again in PBS containing 1% 7-AAD, 0.5% BSA and 2 mM EDTA, followed by the above flow cytometry to measure fluorescence intensity.

HuCXCL3 = target: T3, HuCXCL3 (Homo sapiens, UniProt P19876); test: ELISA, inhibition of binding of HuCXCL3 to GAG (heparin, heparan sulfate); format: biochemical; settings: antibody 0 to 10 μg/mL; biotin-labeled heparin or heparan sulfate 10 μg/mL
T3 construct: purchased PROTEINTECH
T3 sequence (P19876 35-107): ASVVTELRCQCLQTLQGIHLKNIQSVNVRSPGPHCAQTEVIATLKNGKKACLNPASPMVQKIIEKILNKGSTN
Method: as §1, §2

HuCXCL2 = target: T4, HuCXCL2 (Homo sapiens, UniProt P19875); test: ELISA, inhibition of binding of HuCXCL2 to GAG (heparin, heparan sulfate); format: biochemical; settings: antibody 0 to 10 μg/mL; biotin-labeled heparin or heparan sulfate 10 μg/mL
T4 construct: purchased PROTEINTECH
T4 sequence (P19875 35-107): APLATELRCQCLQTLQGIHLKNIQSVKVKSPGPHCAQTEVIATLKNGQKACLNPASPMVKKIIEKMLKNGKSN
Method: as §1, §2

B1: Hu5A-5E11: humanized antibody VH1/VL1; VH SEQ ID NO: 76, VL SEQ ID NO: 78 (antibody, V domains shown)
VH: QVQLVQSGAEVKKPGSSVKVSCKASGYAFSDYWMNWVRQAPGQGLEWIGQIYPGSGDTNYNAKFKGKGTITADKSTSTAYMELSSLRSEDTAVYYCARERDYDVAMDYWGQGTTVTVSS
VL: DIQMTQSPSSLSASVGDRVTITCKASQDINKYIAWFQQKPGKAPKLVIHYTSILQPGVPSRFSGSGSGTDYTFTISSLQPEDIATYYCLQYDNLPWTFGGGTKVEIK
Q: B1 was tested. Which “Dose significantly suppressing the tumor area” value [1] did it give?
A: The value was ≥ 60 μg/head.

Q: And the “Inhibitory activity against the binding of HuCXCL5 to GAG” value (HuCXCL5)?
A: Its value is “inhibit the binding of HuCXCL1, 2, 3 and 5 and MsCXCL1 to GAG in an antibody concentration-dependent manner”.

Q: And the “Inhibitory activity against the binding of HuCXCL1 to GAG” value (HuCXCL1 [2])?
A: Its value is “inhibit the binding of HuCXCL1, 2, 3 and 5 and MsCXCL1 to GAG in an antibody concentration-dependent manner”.

Q: What about the “Inhibitory activity against the binding of HuCXCL1 to cells (fluorescence intensity)” value (HuCXCL1 [3]) of the same molecule?
A: Its value is “reduce the fluorescence intensity of the cells in an antibody concentration-dependent manner”.

Q: And the “Inhibitory activity against the binding of HuCXCL3 to GAG” value (HuCXCL3)?
A: The value was “inhibit the binding of HuCXCL1, 2, 3 and 5 and MsCXCL1 to GAG in an antibody concentration-dependent manner”.

Q: And the “Inhibitory activity against the binding of HuCXCL2 to GAG” value (HuCXCL2)?
A: The value was “inhibit the binding of HuCXCL1, 2, 3 and 5 and MsCXCL1 to GAG in an antibody concentration-dependent manner”.
